Consider 1 substance from PMC5829824.

Bounds are passed on as bounds.

The target in the test is mCherry-tagged human vimentin (human) (UniProt P08670). Briefly: co-IP; mCherry-vimentin or RFP from bEnd.3 cell extracts immunoprecipitated with RFP-trap beads, then incubated with purified InlF-His6; eluates blotted with anti-His6 and anti-RFP; densitometry.
mCherry-tagged human vimentin (human), sequence (P08670 whole entry): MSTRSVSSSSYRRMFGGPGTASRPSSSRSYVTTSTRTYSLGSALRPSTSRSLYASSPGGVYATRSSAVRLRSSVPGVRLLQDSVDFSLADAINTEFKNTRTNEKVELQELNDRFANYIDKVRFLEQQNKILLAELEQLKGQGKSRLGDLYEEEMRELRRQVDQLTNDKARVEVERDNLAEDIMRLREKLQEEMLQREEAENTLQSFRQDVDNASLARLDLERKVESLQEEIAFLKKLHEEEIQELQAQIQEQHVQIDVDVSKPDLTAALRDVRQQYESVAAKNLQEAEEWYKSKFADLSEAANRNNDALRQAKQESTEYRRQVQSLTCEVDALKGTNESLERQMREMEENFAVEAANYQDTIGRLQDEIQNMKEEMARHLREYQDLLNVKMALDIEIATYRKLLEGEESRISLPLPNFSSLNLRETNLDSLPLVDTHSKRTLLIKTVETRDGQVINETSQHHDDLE

Regarding “InlF-His6 (Listeria monocytogenes internalin family surface protein InlF, His6-tagged) (from UniProt O33930 1-821) (natural protein)”, the ratio of anti-His to anti-RFP signals (densitometry), fold over the RFP control was above 5 fold.
